Results on two molecules are retold here after US20230040148 (published 2023).

Data set [1] has as its target T1, LbCas12a E795L (Lachnospiraceae bacterium ND2006). The data set can be described thus: cell_activity; 5 uM RNP, HEK293, 48 h, T7EI; WT 78.5; PAM not stated.
Data set [2] deals with T2, LbCas12a N527R/D559P/E795L (Lachnospiraceae bacterium ND2006). Described as above.
Data set [3] concerns the target T3, LbCas12a D559P (Lachnospiraceae bacterium ND2006). Described as above.
The target of data set [4] is T4, LbCas12a D559P/E795L (Lachnospiraceae bacterium ND2006). Described as above.
In data set [5] the target is T5, LbCas12a N527R/E795L (Lachnospiraceae bacterium ND2006). Described as above.
The target in data set [6] is T6, LbCas12a N527R (Lachnospiraceae bacterium ND2006). The description is as above.
Data set [7] deals with T1, LbCas12a E795L. Description: cell_activity; 5 uM RNP, HEK293, 48 h, T7EI; WT 80.35; PAM not stated.
Another data set deals with LbCas12a N527R/D559P (Lachnospiraceae bacterium ND2006). Described as above.
The target in data set [8] is T2, LbCas12a N527R/D559P/E795L. Described as above.
Data set [9] deals with T3, LbCas12a D559P. The description is as above.
For data set [10], the target named is T4, LbCas12a D559P/E795L. The description is as above.
The target in data set [11] is T5, LbCas12a N527R/E795L. The description is as above.
The target of data set [12] is T6, LbCas12a N527R. The description is as above.

B1: LbCpf1 HPRT 38330-AS-23 crRNA ; HPRT 38330-AS target (protospacer as DNA, 23 nt) (ssRNA ; dsDNA)
RNA: UAAUUUCUACUAAGUGUAGAUGGUUAAAGAUGGUUAAAUGAUUG
DNA 1: GGTTAAAGATGGTTAAATGATTG
DNA 2: CAATCATTTAACCATCTTTAACC
modifications: Alt-R end modifications on 5' and 3' ends
With B1, the activity with LbCas12a E795L [1] is 79.5 % cleavage; in data set [2] it was 28.8 % cleavage; in the data set with LbCas12a D559P [3], 58.4 % cleavage; with LbCas12a D559P/E795L [4], 75.8 % cleavage; with LbCas12a N527R/E795L [5], 21.2 % cleavage; in the data set with LbCas12a N527R [6], 9.6 % cleavage.

B2: LbCpf1 HPRT 38115-AS-23 crRNA ; HPRT 38115-AS target (protospacer as DNA, 23 nt) (ssRNA ; dsDNA)
RNA: UAAUUUCUACUAAGUGUAGAUACACACCCAAGGAAAGACUAUGA
DNA 1: ACACACCCAAGGAAAGACTATGA
DNA 2: TCATAGTCTTTCCTTGGGTGTGT
modifications: Alt-R end modifications on 5' and 3' ends
Turning to B2, the activity with LbCas12a E795L [7] worked out at 78.2 % cleavage; with LbCas12a N527R/D559P, 9.39 % cleavage; in data set [8], 60.3 % cleavage; in the data set with LbCas12a D559P [9] it was 78 % cleavage; in the data set with LbCas12a D559P/E795L [10] it was 79.3 % cleavage; in the data set with LbCas12a N527R/E795L [11], 39.3 % cleavage. The same molecule registered an activity with LbCas12a N527R [12] of 35 % cleavage.
